Among the data in PMC11931385, “Structural and functional analysis of cancer-associated missense variants in the retinoblastoma protein pocket domain” (The Journal of Biological Chemistry, 2025) are Kd values, retold here.

No end group written: not given here. TMR = tetramethyl rhodamine dye

Common to all, as to test: fluorescence polarisation; 25 °C; unlabeled Rb^P titrated against 1.5 nM TMR-E2F1^TD or 7.5 nM TMR-E7^LxCxE; 25 mM Tris pH 8.0, 200 mM NaCl, 1 mM DTT, 0.1% Tween-20; 2 min incubation; quadratic fit; apparent Kd for the variants, Kd for WT
Common to all, as to details: both partners purified

The target in one test is T1, Rb^P D584Y (human, UniProt P06400 380-788, D584Y).
T1 construct: also called variant 32
T1 sequence (looked up): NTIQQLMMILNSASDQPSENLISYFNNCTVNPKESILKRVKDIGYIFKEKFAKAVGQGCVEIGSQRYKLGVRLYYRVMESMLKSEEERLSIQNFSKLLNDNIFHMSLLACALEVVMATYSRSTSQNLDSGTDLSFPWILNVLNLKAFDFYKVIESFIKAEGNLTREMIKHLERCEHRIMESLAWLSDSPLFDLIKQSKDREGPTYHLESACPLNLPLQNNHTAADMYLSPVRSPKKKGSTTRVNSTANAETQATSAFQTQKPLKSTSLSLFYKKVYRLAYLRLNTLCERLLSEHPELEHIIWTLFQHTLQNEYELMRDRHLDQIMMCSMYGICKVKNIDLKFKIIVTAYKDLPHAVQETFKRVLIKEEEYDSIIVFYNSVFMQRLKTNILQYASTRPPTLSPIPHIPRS

Another test deals with T2, Rb^P E693A (human, UniProt P06400 380-788, E693A).
T2 construct: also called variant 60
T2 sequence (looked up): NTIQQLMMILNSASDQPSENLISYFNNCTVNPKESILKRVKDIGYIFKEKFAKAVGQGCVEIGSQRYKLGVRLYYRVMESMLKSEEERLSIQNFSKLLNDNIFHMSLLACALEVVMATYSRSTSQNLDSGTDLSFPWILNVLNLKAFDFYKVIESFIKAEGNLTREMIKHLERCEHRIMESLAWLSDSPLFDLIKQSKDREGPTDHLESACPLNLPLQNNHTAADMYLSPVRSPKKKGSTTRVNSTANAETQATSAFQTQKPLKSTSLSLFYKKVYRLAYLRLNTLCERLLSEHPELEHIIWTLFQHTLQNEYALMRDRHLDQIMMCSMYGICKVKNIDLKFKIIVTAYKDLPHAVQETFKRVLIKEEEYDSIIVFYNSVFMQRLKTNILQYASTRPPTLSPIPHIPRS

For the next test, the target named is T3, Rb^P T638S (human, UniProt P06400 380-788, T638S).
T3 construct: also called variant 45
T3 sequence (looked up): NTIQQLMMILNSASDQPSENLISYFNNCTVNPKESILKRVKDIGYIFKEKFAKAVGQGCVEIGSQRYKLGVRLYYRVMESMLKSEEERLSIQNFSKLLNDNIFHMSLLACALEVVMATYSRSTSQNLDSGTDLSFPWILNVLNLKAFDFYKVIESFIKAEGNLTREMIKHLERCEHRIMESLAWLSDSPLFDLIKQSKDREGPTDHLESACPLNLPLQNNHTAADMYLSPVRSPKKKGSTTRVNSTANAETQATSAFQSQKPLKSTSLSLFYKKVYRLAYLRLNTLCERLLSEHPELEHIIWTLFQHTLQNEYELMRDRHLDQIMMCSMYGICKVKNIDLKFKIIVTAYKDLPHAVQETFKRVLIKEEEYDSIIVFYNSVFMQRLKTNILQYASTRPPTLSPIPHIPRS

For the next test, the target named is T4, Rb^P T738I (human, UniProt P06400 380-788, T738I).
T4 construct: also called variant 67
T4 sequence (looked up): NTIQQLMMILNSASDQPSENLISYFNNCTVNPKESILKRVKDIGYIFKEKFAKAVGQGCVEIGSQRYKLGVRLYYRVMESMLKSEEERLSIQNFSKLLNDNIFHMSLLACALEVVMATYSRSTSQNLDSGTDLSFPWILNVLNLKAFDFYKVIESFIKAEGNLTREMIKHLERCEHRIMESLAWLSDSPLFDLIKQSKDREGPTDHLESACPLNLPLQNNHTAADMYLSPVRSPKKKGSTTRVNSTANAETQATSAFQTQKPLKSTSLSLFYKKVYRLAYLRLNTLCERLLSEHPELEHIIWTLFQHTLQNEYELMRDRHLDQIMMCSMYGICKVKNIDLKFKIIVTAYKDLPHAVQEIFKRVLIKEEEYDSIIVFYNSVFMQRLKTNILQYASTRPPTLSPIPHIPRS

For a further test, the target named is T5, Rb^P D604G (human, UniProt P06400 380-788, D604G).
T5 construct: also called variant 36
T5 sequence (looked up): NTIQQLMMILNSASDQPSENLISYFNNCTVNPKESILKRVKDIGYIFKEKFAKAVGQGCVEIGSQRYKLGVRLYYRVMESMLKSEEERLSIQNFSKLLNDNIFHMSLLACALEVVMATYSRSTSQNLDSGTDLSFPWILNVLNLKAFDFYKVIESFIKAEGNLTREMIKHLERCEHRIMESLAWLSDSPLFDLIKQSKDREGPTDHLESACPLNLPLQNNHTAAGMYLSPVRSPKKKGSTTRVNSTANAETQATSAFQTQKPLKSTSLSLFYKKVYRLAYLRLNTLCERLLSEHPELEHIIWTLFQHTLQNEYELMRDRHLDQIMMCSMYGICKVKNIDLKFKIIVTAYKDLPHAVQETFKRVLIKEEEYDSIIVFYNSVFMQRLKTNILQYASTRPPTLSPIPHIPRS

B1: TMR-E2F1^TD, peptide of the E2F1 transactivation domain (peptide)
peptide: {TMR}-GEGIRDLFDCDFGDLTPLD
notes: also called E2F^TD; source: synthetic peptide, bought: GenScript
Regarding B1, the Kd came out at 33 nM in the test with Rb^P D584Y; 42 nM with Rb^P E693A; 14 nM with Rb^P T638S; 60 nM in the test with Rb^P T738I; 27 nM with Rb^P D604G.

B2: TMR-E7^LxCxE, LxCxE peptide of the E7 oncoprotein from HPV (peptide)
peptide: DLYCYEQLN
modifications: also: TMR label, position not given here
notes: source: synthetic peptide, bought: GenScript
B2: the Kd in the test with Rb^P D584Y is 12 nM; in the test with Rb^P E693A, 7 nM; in the test with Rb^P T638S, 7 nM; with Rb^P T738I, 18 nM; with Rb^P D604G, 13 nM.
